Test results as given in patent US20130330358A1, “CRYSTAL STRUCTURE AND PEPTIDE INHIBITORS OF HAUSP DEUBIQUITINASE” (priority 2011, published 2013).
Like-named read-outs stand apart in the source and are kept apart here.

What was measured:
[1] = target: T1, HAUSP TRAF domain HAUSP^62-205 (Homo sapiens, UniProt Q93009); test: biochemical; assay type: binding; conditions: for n: Table 1a, ITC fit parameter n, 150 mM NaCl, 10 mM HEPES (pH 7.0)
T1 construct: HAUSP^62-205, and HAUSP^62-560 were fused to a hexahistidine-tag2 and expressed in E. coli BL21 (DE3) RIPL cells; hexahistidine (cleaved yes); made in house; host or cells: E. coli BL21 (DE3) RIPL
T1 sequence (Q93009 62-205): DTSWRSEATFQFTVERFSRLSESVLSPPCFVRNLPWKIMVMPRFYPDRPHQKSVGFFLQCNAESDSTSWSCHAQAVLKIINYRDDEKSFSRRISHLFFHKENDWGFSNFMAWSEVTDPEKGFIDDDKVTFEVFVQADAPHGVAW
Procedure: FIG. 5. Typical isothermal titration calorimetric measurements of the interactions between the HAUSP TRAF domain and the vIRF4 protein derivatives or other peptides. Purified proteins and synthesized peptides were reconstituted in 150 mM NaCl and 10 mM HEPES (pH 7.0). The calorimetric assays were performed using a VPITC system. All experiments were carried out with a stirring speed of 300 rpm at 20° C., and the thermal power was recorded every 10 s. Data were analyzed using the ORIGIN software package (version 7.0). […] Each titration against the HAUSP TRAF domain is indicated in each panel.
Purified proteins and synthesized peptides (Peptron Inc., Deajeon, Korea) were reconstituted in 150 mM NaCl and 10 mM HEPES (pH 7.0). The calorimetric assays were performed using a VP-ITC system (MicroCal Inc., Northampton, Mass.). Samples were degassed by vacuum aspiration for 15 min prior to loading. All experiments were carried out with a stirring speed of 300 rpm at 20° C., and the thermal power was recorded every 10 s. Data were analyzed using the ORIGIN software package (version 7.0) supplied with the instrument. […]

[2] = target: T1, HAUSP TRAF domain HAUSP^62-205; test: Size exclusion chromatography, complex formation in 5-fold excess of MDM2^137-152; assay type: binding; conditions: in the presence of a 5-fold molar excess of MDM2 peptide

B1: vIRF4^153-256: vIRF4 aa 153-256 region, hexahistidine-tagged, expressed in E. coli (protein)
chain: SDTREQSYEEAGAAAPAPPKAPSGLRGRPRKSNRYYNVGDITTEQKAACSVWIPVNEGASTSGMGSSGTRQVTQASSFTWRVPGDPPAPSTLTGPSDPHSSGAG
modifications: left off: small tags and cut ends
notes: vIRF4 aa 153-256 region, hexahistidine-tagged, expressed in E. coli
Kd ([1]; HAUSP^62-205 and vIRF4^153-256, ITC, read-out: dissociation constant (Kd)): 76 nM | Kd ([1]; ITC, 20° C., read-out: Kd): 76 nM | n ([1]; 20° C.): 1.13 ± 0.18

B2: vIRF4^153-216: vIRF4 aa 153-216 fragment, hexahistidine-tagged, expressed in E. coli (protein)
chain: SDTREQSYEEAGAAAPAPPKAPSGLRGRPRKSNRYYNVGDITTEQKAACSVWIPVNEGASTSGM
modifications: left off: small tags and cut ends
notes: vIRF4 aa 153-216 fragment, hexahistidine-tagged, expressed in E. coli
Kd ([1]; ITC, 20° C., read-out: Kd): 540 nM | n ([1]; 20° C.): 0.82 ± 0.09 | complex formation with the HAUSP TRAF domain [2]: formed a stable complex
